Experimental data from publication PMC8503589 (The Journal of Biological Chemistry, 2021).

Tests used:
B. cihuensis ADC = test system: T1, B. cihuensis ADC; conditions: 50 mM HEPES pH 7.7, 100 mM NaCl, 20 μM PLP, 1 mM DTT, 26 °C
T1 construct: gene aADC

C. botulinum ODC (aODC) = test system: T2, C. botulinum ODC (aODC)
T2 construct: gene CLI_3176

[1] = test system: F. necrophorum ODC (aODC); conditions: 50 mM HEPES pH 7.7, 100 mM NaCl, 20 μM PLP, 1 mM DTT, 26 °C
purified protein [2] = substrate: NCCCC[C@H](N)C(=O)O; assay: purified protein; conditions: 50 mM HEPES pH 7.7, 100 mM NaCl, 20 μM PLP, 1 mM DTT, 26 °C
purified protein [3] = substrate: N=C(N)NCCC[C@H](N)C(=O)O; assay: purified protein; conditions: 50 mM HEPES pH 7.7, 100 mM NaCl, 20 μM PLP, 1 mM DTT, 26 °C
purified protein [4] = substrate: NCCC[C@H](N)C(=O)O; assay: purified protein; conditions: 50 mM HEPES pH 7.7, 100 mM NaCl, 20 μM PLP, 1 mM DTT, 26 °C

N=C(N)NCCC[C@H](N)C(=O)O [L-arginine]
Km (B. cihuensis ADC): 450 ± 10 µM
Km (C. botulinum ODC (aODC)): 3800 ± 250 µM
Km [1]: 19000 ± 2300 µM

NCCCC[C@H](N)C(=O)O [L-lysine]
Km (C. botulinum ODC (aODC)): 2000 ± 90 µM
Km [1]: 4000 ± 1700 µM

NCCC[C@H](N)C(=O)O [L-ornithine]
Km (C. botulinum ODC (aODC)): 600 ± 30 µM
Km [1]: 650 ± 30 µM

B1: Psychrilyobacter sp. S5 ADC (Psychrilyobacter piezotolerans) (protein)
chain: MQNKTPLFDALKNYHKTDIVSFDVPGHKKRFQNEFSDYVGHKIIELDTNSMKELDILNNPTGVIREAHQLMADAYSADEAFFLVNGTTSGIQTMVMSACNPGDKIILPRNVHKSAINALILSGATPVYIDPEVDETLGISLGISVEKIKEALIKDPDIKAVFIINPTYYGAVSDLEEIIKICHEKNMVVLVDEAHGAHFPFHEKFPKNAMALGADMSAVSIHKTGGSLTQSSVLFLNHRRIKQERVKNMLNLTQTTSASYLLMTSLDVARKTLVTQGDEIFNDLLEMISKFREELNSIPGIRCFKSILSDKLYDFDDTKIGINLHGLGLTGFEGYDILREKYNIQMELADTHNILGIASIGDTWEDYQKLIDALKEMAENYEGNNQLIDFNELESLELVVSPRDAFYSETESIPLSEAIGKVSGESIMVYPPGIPLLIQGERITKDLIDHIYFLKEQKAVITGMNDKTLNNISILKGEHR
Km (purified protein [2]): 6600 ± 1300 µM
kcat (purified protein [2]): 0.06 s⁻¹
kcat/Km (purified protein [2]): 9.5 M⁻¹ s⁻¹
Km (purified protein [3]): 210 ± 20 µM
kcat (purified protein [3]): 0.3 s⁻¹
kcat/Km (purified protein [3]): 1400 M⁻¹ s⁻¹

B2: H. thermocellum ADC (aADC) (Acetivibrio thermocellus ATCC 27405) (protein)
chain: MVLRMNQLKTPVFDAVKRYVESNVIQFHVPGHKQGAGLEELREYIGETALKMDANGMEDLDFANNPTGVIYESEMLAAQAFGAQHAYFLVNGTTSGVQAMIMSACEPGDKIILPRNAHKSTIGGIILSGAVPVYVQPEINEKLGIAMGITVESLKKAIKENPHAKAVFIINPTYYGIASDLKSLVRIAHRYEMAVLVDEAHGAHMSFHDDFPLTAMEVGADMSAVSTHKTGGSLTQSSLLLLRGNMISPERVKQVLNLTYTSSASYLLMCSLDIARKQLATKGSDMLEETLRLARMAREEINKIEGLYAFGKELIGTPGCHDFDETKLGICVSGLGYTGYEMEAKLRKEYNIQIEMSDLSNILAIVSIGDREENLVALINALKDIAAKTEKKEYPKPPIIPPTPKMIVSPRDAFYSPKKIVPLDKSVGEISGEMVMAYPPGIPVVCMGERITQDIVDYIKILKEQKTQLQGTADPYIDHIMVLGVD
Km (purified protein [3]): 130 ± 10 µM
kcat (purified protein [3]): 0.05 s⁻¹
kcat/Km (purified protein [3]): 410 M⁻¹ s⁻¹

B3: L. ferroxidans LDC (Leptospirillum ferrooxidans C2-3) (protein)
chain: MTPYDHNRTPLFDAMVALAESRKVSFHTPGHKSGKGISTRFRKFVGPKVFSIDLTCLDEVDSLQKPRGVIREAQELAADIYGADQSFFLVNGTSGGNQAMILSVMKPGEPILLTRILHKSVVSGLIMTDCKPIFIPLQSTPDCDLLLNDRTDTIIQAMNRHPEAKKLFLTSPNYYGVTLDLPTIIQEAHSRGVTVLVDEAHGPHLHFHDDLPPSAMASNADLCVQSTHKIIGGMTQASILHAKKANIDIERLTSVLRYLQTTSPSYILMASLDLARMQMATEGKKLLSKAIDLARKARERIRKIPGLTCIDRDEVKAASGGDNDLDETKLAIGVKGIGLTGYQVSQKLNHEFGIQVEMADLHHVLVIVSIGDHREDLDRLVRAMEAISHQAMTLKSIIPINVKPPYAIASSRMNPREAFFSSHQSVPLEEALGKTAADIVTVYPPGIPLLIPGEEITQTVLDHLILMRETGATLDGLDSDNRLINIV
Km (purified protein [4]): 28000 ± 7200 µM
kcat (purified protein [4]): 0.17 s⁻¹
kcat/Km (purified protein [4]): 4.2 M⁻¹ s⁻¹
Km (purified protein [2]): 370 ± 70 µM
kcat (purified protein [2]): 0.25 s⁻¹
kcat/Km (purified protein [2]): 700 M⁻¹ s⁻¹

B4: M. blatticola ADC (Methanimicrococcus blatticola) (protein)
chain: MDQNATPIIDALREFDQKNITSYDVPGHKRGIREDDFQKLVGKEVYLMDVNSPVGMDTFAHPKGVIKHSLELAAEAYKADNAFYLVNGSSSGVQIMIMTVCYDGEKILIPRNAHKSVTNSLILSGAVPVFMEPEINQNFAIASGMTLKTIQKYVEANPDAKALFLVYPTYYGACADLEQIIEYAHSKDIVVMVDQAHGAHFSFSSALPKSAAELGADLVVASTHKTGGSLTQSAMLLHNEGLVKYHSIKKRVLMFHTTSPSYLLMASLESSRKLLATQGEEIFHELVHECRKVKKEISKIPGLSVLDENEGVTTMTYDPTKIVINVTKLGLDGFDVYDIMFEKYGIQMELAEPTIVLAVIGIGDTKETIWRLVDAFRDLSDTYYGKYEMLDIPEEIVYVPPQILSPRQAFYADKVSVKIGEAVGRVAAEAVMIYPPGIPICIPGELITAETIEEILYCQENSDCVQKDSKEKDHILVVDDSTE
Km (purified protein [3]): 650 ± 60 µM

B5: C. exile ODC (Caldisericum exile AZM16c01) (protein)
chain: MEQERAPLYEAVSKYIKRKMIPFHMPGHSQGKGAPKILKRLFGDKFFDFDLTEVSGLDYLHYAQGVIREAENLASSLYGTEATIFLVNGTTAGVHAMILDSVRENEKIIIGRNSHRSVIGGILLAKAKPVFVQPEFNEEFGIITNVTPESIKKAITENPDAKAVLVTTPNYYGLQGRIKDIIDIVHENGMRALVDEAHGAHFPFNSKFPKSAIYLGADLVTQSAHKTLPTLTQTSFLHIPSKDVNVDRIEQILSIIESSSPSYIFMTALDVARREMALHGKEMWDKAIEVAEYARERISALDGFKVITDKTINGKDVYAFDPIKLTINVQELGYSGFEFEHILNKNGIEIELADLQNVLLFITIGTSKRDIDTLVSVLKRIEPRKEKSTVRMPKLPEAPSFAMLPFEAFQREFEVVPLRETKGRVSWGIVAPYPPGIPVLAPGMIIDEECIEFTQEVFEKGGLVQGSIRYGSEIAIRVVKGE
Km (purified protein [4]): 180 ± 10 µM
kcat (purified protein [4]): 0.11 s⁻¹
kcat/Km (purified protein [4]): 590 M⁻¹ s⁻¹
Km (purified protein [3]): 540 ± 40 µM
kcat (purified protein [3]): 0.04 ± 0.002 s⁻¹
kcat/Km (purified protein [3]): 82 ± 3.2 M⁻¹ s⁻¹
